Data: PMC12695944, “Geminin inhibits DNA replication licensing by sterically blocking CDT1-MCM2 interactions” (Nature Communications, 2025)
Where two headings read alike, the source gives them in different places.

Legend:
[1] = target: T1, CDT1^ΔN (N-terminally truncated CDT1^158-546) (human, UniProt Q9H211 158-546); assay: SPR; multi-cycle; CDT1^ΔN captured by its N-terminal His tag on an NTA chip; geminin peptides 0.49–250 nM (two-fold steps); 25 °C; 10 mM HEPES, 500 mM NaCl, 50 µM EDTA, 1 mM TCEP-HCl, 0.05% Tween-20, pH 8.0; 1:1 kinetic model of analyte dimer:CDT1, steady-state 1:1 model for Gem^96–160 and Gem^102–160; conditions: both partners purified
T1 construct: CDT1, human, UniProt Q9H211, residues 158-546 (lacks the unstructured N-terminus); Plasmid is in Supplementary Data 1; The His tag serves for capture on the NTA chip in the SPR with peptides; also called standard CDT1 construct; source: E. coli BL21 (DE3), purified (HisTrap Excel, POROS HS, Superdex 200); not shown: His6, N-terminal, kept
T1 sequence (looked up): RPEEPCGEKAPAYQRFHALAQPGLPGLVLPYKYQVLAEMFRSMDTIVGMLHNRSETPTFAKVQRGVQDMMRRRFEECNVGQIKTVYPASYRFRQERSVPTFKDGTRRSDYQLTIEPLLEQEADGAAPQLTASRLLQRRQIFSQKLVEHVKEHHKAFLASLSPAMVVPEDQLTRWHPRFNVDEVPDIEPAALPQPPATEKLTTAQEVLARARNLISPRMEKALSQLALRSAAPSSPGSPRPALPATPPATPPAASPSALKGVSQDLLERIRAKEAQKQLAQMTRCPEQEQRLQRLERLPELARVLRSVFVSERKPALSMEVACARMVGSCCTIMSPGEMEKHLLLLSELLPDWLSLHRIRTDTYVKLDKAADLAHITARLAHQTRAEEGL

[2] = target: the molecule itself; assay: SEC-MALS; Superdex 200 Increase 10/300 GL; peptides 500–1000 µM, 100 µL injected; 10 mM HEPES, 150 mM NaCl, 1 mM TCEP-HCl, pH 7.5; 0.25 mL/min
[3] = target: T2, CDT1^ΔN (N-terminally truncated CDT1^158-546) (human, UniProt Q9H211 158-546); assay: SPR
T2 chain: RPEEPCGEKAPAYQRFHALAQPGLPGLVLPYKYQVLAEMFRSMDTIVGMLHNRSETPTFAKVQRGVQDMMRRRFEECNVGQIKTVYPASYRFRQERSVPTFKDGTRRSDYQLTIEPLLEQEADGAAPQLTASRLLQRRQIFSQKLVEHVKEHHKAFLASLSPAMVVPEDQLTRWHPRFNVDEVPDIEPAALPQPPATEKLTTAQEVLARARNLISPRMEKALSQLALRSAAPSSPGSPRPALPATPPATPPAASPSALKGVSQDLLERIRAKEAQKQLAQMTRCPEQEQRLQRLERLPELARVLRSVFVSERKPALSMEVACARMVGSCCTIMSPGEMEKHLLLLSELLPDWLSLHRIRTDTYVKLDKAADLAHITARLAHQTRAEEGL

[4] = target: T2, CDT1^ΔN (N-terminally truncated …); assay: SPR
[5] = target: T2, CDT1^ΔN (N-terminally truncated …); assay: SPR
[6] = target: T2, CDT1^ΔN (N-terminally truncated …); assay: SPR
[7] = target: T2, CDT1^ΔN (N-terminally truncated …); assay: SPR
[8] = target: T1, CDT1^ΔN (N-terminally truncated …); assay: SPR; CDT1^ΔN with Gem^LINK; steady-state 1:1 binding model; chip and cycle format not stated for Gem^LINK; 25 °C; 10 mM HEPES, 500 mM NaCl, 50 µM EDTA, 1 mM TCEP-HCl, 0.05% Tween-20, pH 8.0; conditions: both partners purified

B1: Gem^96–160 (geminin coiled-coil peptide) (peptide, UniProt O75496 96-160, looked up)
peptide: Ac-SQYWKEVAEKRRKALYEALKENEKLHKEIEQKDNEIARLKKENKELAEVAEHVQYMAELIERLNG-NH2
notes: geminin, human, UniProt O75496, residues 96-160 (the full coiled-coil); Made on Rink amide resin; source: synthetic peptide
In the case of B1, the binding result [1] is reported as “binds”, the “stoichiometry N” value [2] is reported as 2 and the Kd [3] is reported as 21 nM.

B2: Gem^102–160 (peptide, UniProt O75496 102-160, looked up)
peptide: Ac-VAEKRRKALYEALKENEKLHKEIEQKDNEIARLKKENKELAEVAEHVQYMAELIERLNG-NH2
notes: geminin, human, UniProt O75496, residues 102-160; Made on Rink amide resin; source: synthetic peptide
For B2, the Kd [1] was 2800 nM and the “stoichiometry N” value [2] was 2.

B3: Gem^96–140 (peptide, UniProt O75496 96-140, looked up)
peptide: Ac-SQYWKEVAEKRRKALYEALKENEKLHKEIEQKDNEIARLKKENKE-NH2
notes: geminin, human, UniProt O75496, residues 96-140; Made on Rink amide resin; source: synthetic peptide
B3 was tested, and the binding result [1] was “binds”, the “stoichiometry N” value [2] was 2 and the koff [4] was 0.022 s⁻¹. It also gave a Kd [3] of 32 nM.

B4: Gem^90–145 (peptide, UniProt O75496 90-145, looked up)
peptide: Ac-IKENPSSQYWKEVAEKRRKALYEALKENEKLHKEIEQKDNEIARLKKENKELAEVA-NH2
notes: geminin, human, UniProt O75496, residues 90-145; Made on Rink amide resin; source: synthetic peptide
With B4 the Kd [1] was 93 nM, the koff [5] was 0.045 s⁻¹ and the “stoichiometry N” value [2] was 2.

B5: Gem^76–135 (peptide, UniProt O75496 76-135, looked up)
peptide: Ac-KNLGGVTQESFDLMIKENPSSQYWKEVAEKRRKALYEALKENEKLHKEIEQKDNEIARLK-NH2
notes: Made on Rink amide resin; source: synthetic peptide
With B5 the binding result [1] was “binds”, the “stoichiometry N” value [2] was 2 and the Kd [6] was 7 nM. The koff [7] was 0.0029 s⁻¹.

B6: Gem^LINK (geminin with a short glycine linker between the two CDT1 interaction interfaces) (natural protein)
chain: MNPSMKQKQEEIKENIKNSSVPRRTLKMIQPSASGSLVGRENELSAGLSKRKHRNDHLTSTTSSPGVIVPESSENKNLGGVTQESFDLMIGGGGGKENPSSQYWKEVAEKRRKALYEALKENEKLHKEIEQKDNEIARLKKENKELAEVAEHVQYMAELIERLNGEPLDNFESLDNQEFDSEEETVEDSLVEDSEIGTCAEGTVSSSTDAKPCI
modifications: Full-length geminin with a 5x Gly insertion between I90 and K91 (K96 in post-insertion numbering; no deletion, since mutant residues 76-165 correspond to WT 76-160). Homodimer assumed as for wild …
B6 gave a Kd [8] of 38 nM.

B7: Gem^76–140 (peptide, UniProt O75496 76-140, looked up)
peptide: Ac-KNLGGVTQESFDLMIKENPSSQYWKEVAEKRRKALYEALKENEKLHKEIEQKDNEIARLKKENKE-NH2
notes: geminin, human, UniProt O75496, residues 76-140; Made on Rink amide resin; source: synthetic peptide
For B7, the binding result [1] was “binds”, the “stoichiometry N” value [2] was 2 and the Kd [6] was 11 nM. The koff [7] was 0.0033 s⁻¹.

B8: Gem^96–135 (minimal CDT1-binding peptide) (peptide, UniProt O75496 96-135, looked up)
peptide: Ac-SQYWKEVAEKRRKALYEALKENEKLHKEIEQKDNEIARLK-NH2
notes: as for B5
In the case of B8, the binding result [1] is reported as “binds”, the “stoichiometry N” value [2] is reported as 2 and the koff [4] is reported as 0.024 s⁻¹. For the same binder, the Kd [3] was 22 nM.

B9: Gem^96–145 (peptide, UniProt O75496 96-145, looked up)
peptide: Ac-SQYWKEVAEKRRKALYEALKENEKLHKEIEQKDNEIARLKKENKELAEVA-NH2
notes: geminin, human, UniProt O75496, residues 96-145; Made on Rink amide resin; source: synthetic peptide
With B9 the Kd [1] was 38 nM, the “stoichiometry N” value [2] was 2 and the koff [4] was 0.031 s⁻¹.

B10: Gem^76–145 (chemically synthesised peptide) (peptide, UniProt O75496 76-145, looked up)
peptide: Ac-KNLGGVTQESFDLMIKENPSSQYWKEVAEKRRKALYEALKENEKLHKEIEQKDNEIARLKKENKELAEVA-NH2
notes: geminin, human, UniProt O75496, residues 76-145; Made on Rink amide resin; The recombinant recGem^76–145 is another molecule, used only in licensing assays; source: synthetic peptide
B10 was tested, and the Kd [1] was 5.7 nM, the koff [5] was 0.0034 s⁻¹ and the “stoichiometry N” value [2] was 2.

B11: Gem^82–145 (peptide, UniProt O75496 82-145, looked up)
peptide: Ac-TQESFDLMIKENPSSQYWKEVAEKRRKALYEALKENEKLHKEIEQKDNEIARLKKENKELAEVA-NH2
notes: geminin, human, UniProt O75496, residues 82-145; Made on Rink amide resin; source: synthetic peptide
For B11, the Kd [1] was 5.8 nM, the koff [5] was 0.0032 s⁻¹ and the “stoichiometry N” value [2] was 2.
